Test results: publication PMC12363564, “Modulation of the PTPRS proteoglycan switch by antibodies binding to the membrane-proximal fibronectin-type III domain” (The Journal of Biological Chemistry, 2025)

Target: T1, C-terminally 6xHis tagged mouse PTPRS (mPTPRS) ECD (Mus musculus, UniProt B0V2N1)
T1 construct: also called mPTPRS ectodomain; PTPRS ectodomain; source: HEK293T, transiently transfected, supernatant; purified (Ni-NTA, HiTrap heparin); not shown: His6, C-terminal, kept
Assay: BLI; data not shown; 9H5 on C-terminally 6xHis tagged mPTPRS ECD immobilised on an anti-6xHis probe
Settings: both partners purified

T1 sequence (B0V2N1 30-1257): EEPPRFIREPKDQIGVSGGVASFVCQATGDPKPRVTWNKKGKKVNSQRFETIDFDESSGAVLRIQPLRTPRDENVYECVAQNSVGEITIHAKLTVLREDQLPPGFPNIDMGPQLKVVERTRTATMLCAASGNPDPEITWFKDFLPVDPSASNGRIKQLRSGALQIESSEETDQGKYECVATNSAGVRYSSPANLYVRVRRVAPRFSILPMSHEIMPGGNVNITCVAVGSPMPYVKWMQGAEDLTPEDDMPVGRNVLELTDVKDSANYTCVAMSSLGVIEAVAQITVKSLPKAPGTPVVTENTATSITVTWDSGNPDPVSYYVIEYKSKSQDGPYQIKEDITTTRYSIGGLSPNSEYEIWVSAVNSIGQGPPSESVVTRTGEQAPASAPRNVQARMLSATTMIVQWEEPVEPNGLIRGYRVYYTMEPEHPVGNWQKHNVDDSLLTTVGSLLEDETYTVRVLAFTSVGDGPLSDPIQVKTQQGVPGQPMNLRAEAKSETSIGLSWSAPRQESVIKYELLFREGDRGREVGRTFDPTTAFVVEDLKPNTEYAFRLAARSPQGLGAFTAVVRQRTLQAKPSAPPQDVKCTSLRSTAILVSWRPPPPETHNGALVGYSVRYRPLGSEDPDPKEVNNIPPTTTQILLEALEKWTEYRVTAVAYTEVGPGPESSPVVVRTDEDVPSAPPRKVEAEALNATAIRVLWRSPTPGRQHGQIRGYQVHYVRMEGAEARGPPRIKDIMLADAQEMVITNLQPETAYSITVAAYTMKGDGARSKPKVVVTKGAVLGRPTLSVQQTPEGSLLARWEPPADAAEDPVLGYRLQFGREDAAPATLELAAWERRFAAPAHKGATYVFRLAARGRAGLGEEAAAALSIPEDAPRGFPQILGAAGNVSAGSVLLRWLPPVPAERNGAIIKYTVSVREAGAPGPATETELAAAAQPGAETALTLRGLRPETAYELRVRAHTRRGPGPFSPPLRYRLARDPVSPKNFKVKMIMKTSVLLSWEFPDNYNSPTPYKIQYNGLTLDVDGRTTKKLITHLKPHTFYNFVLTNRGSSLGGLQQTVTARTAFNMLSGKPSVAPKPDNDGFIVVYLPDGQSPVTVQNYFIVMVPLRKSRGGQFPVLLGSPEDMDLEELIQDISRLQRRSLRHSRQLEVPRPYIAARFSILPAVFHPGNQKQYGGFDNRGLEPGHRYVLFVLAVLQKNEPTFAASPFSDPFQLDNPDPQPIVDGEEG

binding result: no binding
B1: 9H5 (mouse monoclonal antibody, IgG1/κ) (antibody, V domains shown)
VH: QVQLVETGGGLVRPGNSLKLSCVTSGFTFSNYRMHWLRQPPGKRLEWIAVITVKSDNYGANYAESVKGRFTISRDDSKSSVYLQMNRLREEDTATYYCSRSVYYGYVLAFDYWGQGTTLTVSS
VL: DIQMTQTTSSLSASLGDRVTISCRASQDISNYLNWYQQKPDGTVKLLIYYTSRLHSGVPSRFSGSGSGTDYSLTISNLEQEDIATYFCQQGNTLPWTFGGGTKLEIK
notes: VH of 9H5; constant region of the mouse IgG1 heavy chain; VL of 9H5; constant region of the mouse κ light chain; IgG1/κ; source: production contracted to Viva Biotech
